The source of these data is paper PMC6974733, “Rap1‐mediated nucleosome displacement can regulate gene expression in senescent cells without impacting the pace of senescence”.

Changes are numbered by the printed parent chain. Names may count otherwise.

Data set [1] has as its target histone H3/H4 tetramers, P61830;P02309. Put plainly: GST pull-down, H3 immunoblot quantitation. The following applies: chain shown with the change, read off a plot; for ratio to parent: 0.5 μM GST-SANT, 0.5 μM histones, 400 mM NaCl, N = 2, parent: est. 1.0; for response: 2 μM Rap1 truncated constructs, 2 μM H3/H4, 400 mM NaCl, N = 3, scale: relative H3 signal.
Data set [2] concerns the target T1, Rap1 (Saccharomyces cerevisiae? (budding …, UniProt P11938 1-827)).
T1 sequence: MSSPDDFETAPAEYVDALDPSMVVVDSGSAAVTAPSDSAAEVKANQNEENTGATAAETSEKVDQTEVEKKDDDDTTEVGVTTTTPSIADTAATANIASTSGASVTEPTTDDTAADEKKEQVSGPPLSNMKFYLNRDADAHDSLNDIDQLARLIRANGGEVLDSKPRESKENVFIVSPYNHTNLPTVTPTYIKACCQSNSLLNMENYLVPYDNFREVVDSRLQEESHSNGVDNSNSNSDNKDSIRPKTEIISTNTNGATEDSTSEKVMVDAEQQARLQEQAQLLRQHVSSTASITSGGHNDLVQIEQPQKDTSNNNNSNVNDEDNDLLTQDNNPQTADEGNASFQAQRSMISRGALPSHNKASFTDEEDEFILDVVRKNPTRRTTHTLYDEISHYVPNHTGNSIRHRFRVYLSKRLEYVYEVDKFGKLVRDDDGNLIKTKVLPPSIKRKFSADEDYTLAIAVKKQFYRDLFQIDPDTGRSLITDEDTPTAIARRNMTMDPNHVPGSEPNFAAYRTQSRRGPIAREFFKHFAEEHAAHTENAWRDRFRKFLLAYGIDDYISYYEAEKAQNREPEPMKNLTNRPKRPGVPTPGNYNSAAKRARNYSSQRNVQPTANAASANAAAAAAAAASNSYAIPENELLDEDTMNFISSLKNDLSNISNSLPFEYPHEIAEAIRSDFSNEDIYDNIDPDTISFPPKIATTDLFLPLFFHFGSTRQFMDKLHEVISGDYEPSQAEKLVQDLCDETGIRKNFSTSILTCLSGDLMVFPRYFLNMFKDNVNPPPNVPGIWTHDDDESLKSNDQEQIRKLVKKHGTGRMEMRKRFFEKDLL
In words: EMSA; 5-50 nM protein; affinity similar to Rap1SHY; 20 mM Hepes-KOH pH 8, 100 mM KCl, 10 ug/ml BSA, 1 mM EDTA, 2 mM MgCl2, 5% glycerol, 30 min at room temperature; 0.5 nM 32P duplex; 6% gel run at 4 C; concentrations of active protein (~85% active). The following applies: protein: recombinant; tags: N-terminal GST, C-terminal 6xHis (Ni-NTA and GST resin purified); label: 32P 5' end label on one strand (PNK); blunt. (In general: A gel shift assay detects complexes by their altered migration in electrophoresis.)

Data set [3] has as its target T2, Rap1SHY (Saccharomyces cerevisiae? (budding …, UniProt P11938 1-827, S392A;H393A;Y394A)).
T2 sequence: T1 sequence with S392A, H393A, Y394A
In words: EMSA; 5-50 nM protein; affinity similar to Rap1; 20 mM Hepes-KOH pH 8, 100 mM KCl, 10 ug/ml BSA, 1 mM EDTA, 2 mM MgCl2, 5% glycerol, 30 min at room temperature; 0.5 nM 32P duplex; 6% gel run at 4 C; concentrations of active protein (~85% active). The following applies: protein: recombinant; tags: N-terminal GST, C-terminal 6xHis (pGST-RAP1 SHY-6xHis); label: 32P 5' end label on one strand (PNK); blunt.

The target in data set [4] is T1, Rap1. Put plainly: EMSA; 0.5-100 nM protein; lower affinity than Rap1SHY; 20 mM Hepes-KOH pH 8, 100 mM KCl, 10 ug/ml BSA, 1 mM EDTA, 2 mM MgCl2, 5% glycerol, 30 min at room temperature; 0.5 nM 32P duplex; 6% gel run at 4 C; concentrations of active protein (~85% active). Conditions: protein: recombinant; tags: N-terminal GST, C-terminal 6xHis (Ni-NTA and GST resin purified); label: 32P 5' end label on one strand (PNK); blunt.

The target in data set [5] is T2, Rap1SHY. Put plainly: EMSA; 0.5-100 nM protein; higher affinity than Rap1; 20 mM Hepes-KOH pH 8, 100 mM KCl, 10 ug/ml BSA, 1 mM EDTA, 2 mM MgCl2, 5% glycerol, 30 min at room temperature; 0.5 nM 32P duplex; 6% gel run at 4 C; concentrations of active protein (~85% active). The following applies: protein: recombinant; tags: N-terminal GST, C-terminal 6xHis (pGST-RAP1 SHY-6xHis); label: 32P 5' end label on one strand (PNK); blunt.

Data set [6] has as its target T2, Rap1SHY. In words: EMSA; 5-500 nM protein; affinity similar to Rap1; 20 mM Hepes-KOH pH 8, 100 mM KCl, 10 ug/ml BSA, 1 mM EDTA, 2 mM MgCl2, 5% glycerol, 30 min at room temperature; 0.5 nM 32P duplex; 6% gel run at 4 C; concentrations of active protein (~85% active). Conditions: protein: recombinant; tags: N-terminal GST, C-terminal 6xHis (pGST-RAP1 SHY-6xHis); label: 32P 5' end label on one strand (PNK); blunt.

For data set [7], the target named is T1, Rap1. In words: EMSA; 5-500 nM protein; affinity similar to Rap1SHY; 20 mM Hepes-KOH pH 8, 100 mM KCl, 10 ug/ml BSA, 1 mM EDTA, 2 mM MgCl2, 5% glycerol, 30 min at room temperature; 0.5 nM 32P duplex; 6% gel run at 4 C; concentrations of active protein (~85% active). Conditions: protein: recombinant; tags: N-terminal GST, C-terminal 6xHis (Ni-NTA and GST resin purified); label: 32P 5' end label on one strand (PNK); blunt.

B1: GST-SANT, P11938 D389A; E390A; I391A (protein)
chain: KASFTDEEDEFILDVVRKNPTRRTTHTLYAAASHYVPNHTGNSIRHRFRVY
In the case of B1, in data set [1], the ratio to parent was found to be 0.82.

B2: GST-SANT, P11938 N401A; S402A; I403A (protein)
chain: B1 chain with A30D, A31E, A32I, N42A, S43A, I44A
Regarding B2, the ratio to parent in data set [1] came to 0.97.

B3: GST-SANT, P11938 H398A; T399A; G400A (protein)
chain: B1 chain with A30D, A31E, A32I, H39A, T40A, G41A
As for B3, the ratio to parent in data set [1] came to 0.62.

B4: GST-SANT, P11938 S392A; H393A; Y394A (protein)
chain: B1 chain with A30D, A31E, A32I, S33A, H34A, Y35A
Take B4: the ratio to parent in data set [1] was found to be 0.21.

B5: GST-Rap1^643Δ S392A; H393A; Y394A (protein)
chain: MSSPDDFETAPAEYVDALDPSMVVVDSGSAAVTAPSDSAAEVKANQNEENTGATAAETSEKVDQTEVEKKDDDDTTEVGVTTTTPSIADTAATANIASTSGASVTEPTTDDTAADEKKEQVSGPPLSNMKFYLNRDADAHDSLNDIDQLARLIRANGGEVLDSKPRESKENVFIVSPYNHTNLPTVTPTYIKACCQSNSLLNMENYLVPYDNFREVVDSRLQEESHSNGVDNSNSNSDNKDSIRPKTEIISTNTNGATEDSTSEKVMVDAEQQARLQEQAQLLRQHVSSTASITSGGHNDLVQIEQPQKDTSNNNNSNVNDEDNDLLTQDNNPQTADEGNASFQAQRSMISRGALPSHNKASFTDEEDEFILDVVRKNPTRRTTHTLYDEIAAAVPNHTGNSIRHRFRVYLSKRLEYVYEVDKFGKLVRDDDGNLIKTKVLPPSIKRKFSADEDYTLAIAVKKQFYRDLFQIDPDTGRSLITDEDTPTAIARRNMTMDPNHVPGSEPNFAAYRTQSRRGPIAREFFKHFAEEHAAHTENAWRDRFRKFLLAYGIDDYISYYEAEKAQNREPEPMKNLTNRPKRPGVPTPGNYNSAAKRARNYSSQRNVQPTANAASANAAAAAAAAASNSYAIPENELLDEDT
Take B5: in data set [1] (parent: est. 1.3), the response is 0.71.

B6: TEF2 promoter Rap1 site (dsDNA)
DNA 1: TGTTGCACCCACACATTTA
DNA 2: TAAATGTGTGGGTGCAACA
Regarding B6, the binding result in the data set with Rap1 [2] and with Rap1SHY [3] was “binds” each time.

B7: GST-Rap1^CΔ, P11938 S392A; H393A; Y394A (protein)
chain: MSSPDDFETAPAEYVDALDPSMVVVDSGSAAVTAPSDSAAEVKANQNEENTGATAAETSEKVDQTEVEKKDDDDTTEVGVTTTTPSIADTAATANIASTSGASVTEPTTDDTAADEKKEQVSGPPLSNMKFYLNRDADAHDSLNDIDQLARLIRANGGEVLDSKPRESKENVFIVSPYNHTNLPTVTPTYIKACCQSNSLLNMENYLVPYDNFREVVDSRLQEESHSNGVDNSNSNSDNKDSIRPKTEIISTNTNGATEDSTSEKVMVDAEQQARLQEQAQLLRQHVSSTASITSGGHNDLVQIEQPQKDTSNNNNSNVNDEDNDLLTQDNNPQTADEGNASFQAQRSMISRGALPSHNKASFTDEEDEFILDVVRKNPTRRTTHTLYDEIAAAVPNHTGNSIRHRFRVYLSKRLEYVYEVDKFGKLVRDDDGNLIKTKVLPPSIKRKFSADEDYTLAIAVKKQFYRDLFQIDPDTGRSLITDEDTPTAIARRNMTMDPNHVPGSEPNFAAYRTQSRRGPIAREFFKHFAEEHAAHTENAWRDRFRKFLLAYGIDDYISYYEAEKAQNREPEPMKNLTNRPKRPGVPTPGNYNSAAKRAR
For B7, the response in data set [1] (parent: est. 0.68) is 0.47.

B8: TeloA telomeric sequence (dsDNA)
DNA 1: GCCGCACACCCACACACCAGTG
DNA 2: CACTGGTGTGTGGGTGTGCGGC
For the molecule B8, the binding result in the data set with Rap1 [4] and with Rap1SHY [5] was “binds” each time.

B9: GAC1 NRTS promoter (dsDNA)
DNA 1: AATAATACATCACATTAACTGTCTATAAGAGGCTGGTAC
DNA 2: GTACCAGCCTCTTATAGACAGTTAATGTGATGTATTATT
For the molecule B9, the “dissociation constant (Kd)” value with Rap1SHY [6] and in the data set with Rap1 [7] was ~10 fold vs TEF2 (printed: Kd approximately 10-fold lower than in B; titration range suggests affinity is meant) throughout.
